Article PMC10350915, “Development of a New Class of CXCR4-Targeting Radioligands Based on the Endogenous Antagonist EPI-X4 for Oncological Applications” (Journal of Medicinal Chemistry, 2023)
Square brackets hold non-standard residues; d marks the D form. Side chains are listed from the residue outwards. Ends that are not written are not given here. Peptide text beside a SMILES is read from it. * marks the point of attachment. DOTA = O=C(O)CN1CCN(CC(=O)O)CCN(CC(=O)*)CCN(CC(=O)O)CC1; dTyr(3-I) = N[C@H](Cc1ccc(O)c(I)c1)C(=O)O; 2Nal = N[C@@H](Cc1ccc2ccccc2c1)C(=O)O; Palmitoyl = CCCCCCCCCCCCCCCC(=O)*; dNMeOrn = CN[C@H](CCCN)C(=O)O; 4Amb = NCc1ccc(C(=O)O)cc1

What was measured:
[1] = cited from earlier work
[2] = in vivo; cited from earlier work
[3] = cited from earlier work; remark: listed apart in the source
[4] = type: in vitro ADME, human
Experimental: Representative radiochromatograms are provided in Figure S25 for ^177Lu-1, ^177Lu-2, and ^177Lu-7. This included ^177Lu-9 despite its fatty acid chain.
(§1) Figure 3 Stability of the ^177Lu ligands in human plasma at 37 °C, expressed as % of intact radioligand over time, assessed by radio-HPLC. The % of plasma protein binding (PPB) after 60 min incubation is provided in parenthesis and it is expressed as the % of radioligand in the protein fraction (pellet) versus the total activity in the plasma. TEXT PRINTED IN THE PICTURE: ^177Lu-1: PPB: 35% | ^177Lu-2: PPB: 22% | ^177Lu-5: PPB: 42% | ^177Lu-6: PPB: 38% | ^177Lu-7: PPB: 39% | ^177Lu-9: PPB: 37%
To 1 mL of fresh human plasma, previously equilibrated at 37 °C, 500 pmol (8–10 MBq) of each ^177Lu-labeled ligand was added. The mixture was incubated at 37 °C for different time points (0, 15, 30, 60, and 120 min). At each time point, a 100 μL aliquot was removed and treated with 1.5 excess (v/v) of acetonitrile, to precipitate plasma proteins, followed by centrifugation for 5 min at 3500 rpm. The supernatant was collected and the process of protein precipitation was repeated. Afterward, 100 μL from the supernatant was taken, diluted with water at a ratio of 1:10 (v/v), and injected into radio-HPLC. The radioligand (in)stability was assessed by quantifying the percentage of intact radioligand over time.

[5] = type: physicochemical; details: pH 7.4
Experimental: In a prelubricated eppendorf tube, a presaturated mixture of 500 μL of octanol and 500 μL of phosphate-buffered saline (PBS) were added. 1 pmol of the ^177Lu-labeled ligand was pipetted into this mixture, vortexed for 30 min, and then centrifuged at 3000 rpm for 10 min to achieve phase separation. Aliquots of 100 μL were removed from the octanol and from the PBS phase and the activity measured in a γ-counter. The distribution coefficient was calculated as the average log ratio value of the radioactivity in the organic fraction and PBS fraction.

[6] = type: in vitro ADME; details: human, plasma, plasma protein binding (PPB)
Experimental: as §1
For the determination of plasma protein binding (PPB), 100 μL from the plasma incubated with the ^177Lu ligand was removed and measured in a γ-counter (total radioactivity). Protein precipitation and separation followed, as described above. The supernatant and the protein pellet were then measured in a γ-counter. The percentage of plasma protein binding was calculated as the ratio between the protein-bound radioactivity and the total radioactivity in the plasma.

Jurkat xenografts = type: in vivo, mouse; details: 1 h p.i., SPECT/CT or PET/CT
Experimental: The ability of the ^177Lu ligands to target CXCR4 in vivo was assessed by SPECT/CT imaging in Jurkat xenografts. […] 1 h after injection, the remaining amount of radioligand in the body (and vice versa, the washout) was quantified by measuring the total body activity (mouse) in a dose calibrator. The % of the radioligand remaining in the body after 1 h is reported in Figure 6A as % of the remaining activity in reference to the injected activity (100%).
Figure 6 SPECT/CT images as maximum intensity projections (MIPs) of Jurkat tumor-bearing mice at 1 h p.i. of ^177Lu-labeled ligands (200 pmol, ∼15 MBq). […] (B) Same SPECT/CT images of ^177Lu-1, ^177Lu-2, ^177Lu-5, and ^177Lu-6, adapted in a lower scale. T: tumor, L: liver, and K: kidneys. […] TEXT PRINTED IN THE PICTURE: (A) ^177Lu-1: Remaining Activity (% injected): 6 % | (A) ^177Lu-2: Remaining Activity (% injected): 7 % | (A) ^177Lu-5: Remaining Activity (% injected): 7 % | (A) ^177Lu-6: Remaining Activity (% injected): 8 % | (A) ^177Lu-7: Remaining Activity (% injected): 55 % | (A) ^177Lu-9: Remaining Activity (% injected): 94 %
The experimental protocol involving animals was approved by the Veterinary Office (Department of Health) of the Cantonal Basel-Stadt (Approval No. 30515) in accordance with the Swiss regulations for animal treatment. Female athymic nude-Foxn1^nu/Foxn1^+ mice (Envigo, The Netherlands), 4–6 weeks old, were injected subcutaneously with 10^7 Jurkat cells in a 200 μL (1:1) mixture of PBS and Matrigel (CorningMatrigelMembrane matrix, Fischer Scientific, Germany) on the right shoulder. The tumors were allowed to grow for 3–4 weeks before commencement of the experiments.
Nude mice bearing Jurkat xenografts were intravenously injected via the tail vein with ∼15 MBq (200 pmol) of the ^177Lu ligands and 8 MBq (200 pmol) of ^68Ga-7 were euthanized 1 h post injection (p.i.). The radioactivity in the syringe before and after injection was measured followed by measuring the amount of radioactivity remaining in the sacrificed mice. […]

Ghost-CXCR4 cells = assay: Cellular uptake and distribution in Ghost-CXCR4 cells; type: cell-based, human; details: 37 °C, 60 min
Experimental: Figure 4 In vitro assessment in Ghost-CXCR4 cells at 37 °C. […] Each experiment was performed in triplicate. Results are means ± SD [% of applied activity] from a minimum of two separate experiments. […] Cellular uptake was interrupted at 15, 30, and 60 min by removing the medium and washing twice with ice-cold PBS. The cell surface-bound radioligand was obtained by washing cells twice with ice-cold glycine buffer (pH 2.8) followed by a collection of the internalized fraction after treating the cells with 1 M sodium hydroxide (NaOH). The activity in each fraction was measured in a γ-counter. […] The results were expressed as a percentage of the applied radioactivity after subtracting the nonspecific uptake.

[7] = Shelf-life of 177Lu-labeled ligands at room temperature (radio-HPLC); type: physicochemical
Experimental: The shelf-life of each ^177Lu-labeled ligand was monitored at room temperature up to 24 h after radiolabeling.
The shelf-lives of ^177Lu-labeled ligands were assessed at room temperature (RT) in the buffer used for labeling, as described above. For the analysis, 5 μL was withdrawn at desired time points (0, 1, 2, 4, and 24 h) from the stock solution and mixed with 50 μL of the Ca-DTPA solution. 20 μL of this mixture was withdrawn and injected in RP-HPLC.

LVRYTKKVPQVSTPTL [EPI-X4]
half-life in human plasma [1]: 17 min

CN1C(=O)[C@@H](Cc2ccc(O)cc2)NC(=O)CNC(=O)[C@H](Cc2ccc3ccccc3c2)NC(=O)[C@H](CCCN=C(N)N)NC(=O)[C@H]1CCCNC(=O)c1ccc(CNC(=O)CN2CCN(CC(=O)[O-])CCN(CC(=O)[O-])CCN(CC(=O)[O-])CC2)cc1.[68Ga+3] [^68Ga-Pentixafor, cyclo(D-Tyr^1-D-[NMe]Orn^2(AMBS-(^68Ga-DOTA))-Arg^3-Nal^4-Gly^5)] (cyclo([2Nal]G[dY][dNMeOrn]([4Amb-DOTA])R))
activity in the blood [2]: 1.08 ± 0.27 %IA/g | uptake in the kidneys [2]: 3.06 ± 0.63 %IA/g

CN1C(=O)[C@@H](Cc2ccc(O)c(I)c2)NC(=O)CNC(=O)[C@H](Cc2ccc3ccccc3c2)NC(=O)[C@H](CCCN=C(N)N)NC(=O)[C@H]1CCCNC(=O)c1ccc(CNC(=O)CN2CCN(CC(=O)O)CCN(CC(=O)O)CCN(CC(=O)O)CC2)cc1.[177Lu] [^177Lu-Pentixather, cyclo(3-iodo-D-Tyr^1-D-[NMe]Orn^2(AMBS-(^177Lu-DOTA)-Arg^3-Nal^4-Gly^5)] (cyclo([2Nal]G[dTyr(3-I)][dNMeOrn]([4Amb-DOTA])R))
plasma protein binding (PPB) [3]: 97%

CC[C@H](C)[C@H](N)C(=O)N[C@@H](CC(C)C)C(=O)N[C@@H](CCCNC(=N)N)C(=O)N[C@@H](Cc1c[nH]c2ccccc12)C(=O)N[C@@H](CO)C(=O)N[C@@H](CCCNC(=N)N)C(=O)N[C@@H](CCCCN)C(=O)N[C@@H](CC(C)C)C(=O)N1CCC[C@H]1C(=O)N[C@@H](CO)C(=O)N[C@H](C(=O)N[C@@H](CO)C(=O)N[C@@H](CCCCNC(=O)CN1CCN(CC(=O)O)CCN(CC(=O)O)CCN(CC(=O)O)CC1)C(=O)O)C(C)C [^177Lu-2, metal not drawn] (H-ILRWSRKLPSVSK(DOTA)-OH; N-terminus and C-terminus assumed)
time to complete degradation in human plasma [4]: 60 min | logD [5]: -3.23 ± 0.23 | fraction unbound at 60 min [6]: 0.78

CCCCCCCCCCCCCCCC(=O)N[C@@H](CCC(=O)O)C(=O)NCCCC[C@H](NC(=O)[C@H](CCCNC(=N)N)NC(=O)[C@H](CO)NC(=O)[C@H](Cc1c[nH]c2ccccc12)NC(=O)[C@H](CCCNC(=N)N)NC(=O)[C@H](CC(C)C)NC(=O)[C@H](N)CC(C)C)C(=O)N[C@@H](CCCCNC(=O)CN1CCN(CC(=O)O)CCN(CC(=O)O)CCN(CC(=O)O)CC1)C(N)=O [^177Lu-9, metal not drawn] (H-[dL]LRWSRK([Glu-Palmitoyl])K(DOTA)-NH2; N-terminus assumed)
visualization of CXCR4-expressing tumor xenograft by imaging (Jurkat xenografts): failed to visualize CXCR4-expressing tumors | metabolic stability in plasma (in words) ([4]; human, plasma): high metabolic stability in plasma up to 4 h | cellular uptake (% of the applied activity) (Ghost-CXCR4 cells): 3.25 ± 0.06% | subcellular distribution (membrane-bound vs internalized) (Ghost-CXCR4 cells): almost entirely internalized | radiochemical purity (%) ([7]; 0 h after radiolabeling): 96 ± 3% | radiochemical purity (%) ([7]; 1 h after radiolabeling): 96 ± 2% | radiochemical purity (%) ([7]; 2 h after radiolabeling): 94 ± 1% | radiochemical purity (%) ([7]; 4 h after radiolabeling): 93 ± 1% | logD [5]: 0.29 ± 0.1 | fraction unbound at 60 min [6]: 0.63

CC[C@H](C)[C@H](N)C(=O)N[C@@H](CC(C)C)C(=O)N[C@@H](CCCNC(=N)N)C(=O)N[C@@H](Cc1c[nH]c2ccccc12)C(=O)N[C@@H](CO)C(=O)N[C@@H](CCCNC(=N)N)C(=O)N[C@@H](CCCCN)C(=O)N[C@@H](CC(C)C)C(=O)N1CCC[C@H]1C(=O)N[C@@H](CS)C(=O)N[C@H](C(=O)N[C@@H](CO)C(=O)O)C(C)C [JM#21, I^1LRWSRK^7LPCVS^12]
half-life in human plasma [1]: ~6 min
